# Laboratory results published in the RNAGym collection of RNA variant scans (doi:10.1093/nar/gkz1192).
# B1: CPEB3 Ribozyme (parent)
# chain: UAACAGGGGGCCACAGCAGAAGCGUUCACGUCGCAGCCCCUGUCAGAUUCUGGUGAAUCUGCGAAUUCUGCUGUAUAUCUC
# Variants of: B1
# Test: self-cleavage, relative activity (ratio to wild type); higher = more cleavage; in vitro, sequencing
# Outline: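 After error-prone PCR and barcoding, CPEB3 ribozyme mutant libraries were transcribed with T7 RNA polymerase at 37°C for 5 hours, then given 15 min with DNase I before an EDTA stop, and they cleaved during both steps. Reverse transcription with template switching preceded Illumina sequencing. Relative activity divides a variant's cleaved/total read fraction by the unmutated ribozyme's. At least 5 reads were required per variant, and three batches were averaged.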
row,Variant,self-cleavage
1,A64U U80A,0.37
2,A64U U80C,0.45
3,C62A A65G,0.36
4,C62A A65U,0.24
5,G61U U76A,0.39
6,G61C U72C,0.34
7,A65U G73A,0.29
8,A65U G73U,0.57
9,G63A U74A,0.33
10,G63A U74C,1.21
11,A65C C81A,0.5
12,C62U U69C,0.32
13,C62U U69A,0.38
14,A64G U69A,0.38
15,A64G U69C,0.41
16,A64G U69G,0.44
17,C62U G73U,0.21
18,C62U G73A,0.16
19,C62U U76C,0.33
20,C62U U76A,0.25
21,G63U C79U,1.09

row,Variant,self-cleavage
1,A64U G70A,0.21
2,A64U G70U,0.26
3,A64U G70C,0.25
4,A64G C81U,0.91
5,A64G C81A,1.02
6,A64G C81G,1.03
7,G61U,0.6
8,G63U U69A,0.57
9,C62A G73A,0.24
10,A64U A65G,0.25
11,A64U A65U,0.37
12,A64U A65C,0.13
13,C62A U76C,0.17
14,G63U A75U,1.2
15,G63U A75G,1.14
16,A65G A77G,0.51
17,A65G A77U,0.55
18,A65G A77C,0.45
19,G63A U66A,0.4
20,G63A U66C,0.45
21,A64G A75G,0.71

row,Variant,self-cleavage
1,A64G A75U,1.01
2,A64G A75C,1.06
3,A64G U76A,0.95
4,A64G U76C,0.94
5,A64U C81A,0.42
6,G63A U76A,0.82
7,A64G U78G,1.11
8,A64G U78A,1.07
9,A64G U78C,0.77
10,G63A U69A,0.5
11,G63A U69C,0.61
12,C62A U80C,0.34
13,C62A U80A,0.1
14,G63A U80C,0.93
15,G63A U80A,0.97
16,A64G C79U,1.1
17,A64G C79A,0.84
18,A64U U74C,0.6
19,A64U U74A,0.51
20,G63A C81U,1.07
21,C62G A65U,0.27

row,Variant,self-cleavage
1,C62U A65U,0.14
2,C62U A65G,0.27
3,C62A G63A,0.25
4,A65G A75G,0.4
5,A65G A75U,0.41
6,A65C U78C,0.15
7,G63A A64G,0.6
8,G63A A64C,0.42
9,G63A A64U,0.54
10,A65U A75G,0.2
11,A65U A75U,0.36
12,G63U U72C,1.2
13,C62G U69A,0.15
14,C62G U69C,0.22
15,A64G A65G,0.28
16,A64G A65C,0.31
17,A64G A65U,0.19
18,G63C U67A,0.25
19,G63C U67C,0.31
20,G61U G70A,0.31
